Laboratory results from paper PMC8659124, “Structural Analysis of Saccharomyces cerevisiae Dihydroorotase Reveals Molecular Insights into the Tetramerization Mechanism” (Molecules, 2021).
Where “and” joins values, the source holds several entries; their conditions need not be identical. Identical values can stand only once.

Legend:
[1] = target: DHOase domain of human CAD (human); assay: cross-linking; glutaraldehyde 1%, individual DHOase 3 uM, 4 C, 20 min; Coomassie Blue-stained SDS-PAGE
[2] = target: Klebsiella pneumonia DHOase (Klebsiella pneumonia); assay: as above
[3] = target: the molecule itself; assay: as above
[4] = target: the molecule itself; assay: cross-linking; glutaraldehyde 0.5%, DHOase 3 uM, 4 C, 20 min; Coomassie Blue-stained SDS-PAGE
[5] = target: the molecule itself; assay: SEC; Superdex 200 prep grade, protein 10 mg/mL in 20 mM MES, 100 mM NaCl, pH 6.0, 0.5 mL/min; calibrated with proteins of known molecular weight
[6] = target: the molecule itself; assay: crystal structure; complex form I with malate, 16% PEG 4000, 100 mM imidazole-malate, pH 7.0, room temperature; PDB 6L0A, 1.79 A, space group P2(1), four molecules per asymmetric unit

## DHOase domain of human CAD (domain or fragment)
[1]
  stoichiometry N: 2

## Klebsiella pneumonia DHOase (enzyme)
[2]
  stoichiometry N: 2

B1: Salmonella enterica serovar Typhimurium LT2 DHOase (enzyme, UniProt P06204 1-348, looked up)
chain: MTAPSQVLKIRRPDDWHVHLRDGDMLKTVVPYTSEIYGRAIVMPNLASPITTVDAAIAYRQRILDAVPAGHDFTPLMTCYLTDSLDADELERGFHEGVFTAAKLYPANATTNSSHGVTSVDAIMPVLERMEKLGIPLLVHGEVTHADVDIFDREARFIDTVMEPLRQRLTALKVVFEHITTKDAAQYVRDGNDYLAATITPQHLMFNRNDMLVGGIRPHLYCLPILKRNIHQQALRELVASGFTRAFLGTDSAPHSRHRKETSCGCAGCFNAPSALGSYAAVFEEMNALAHFEAFCSLNGPQFYGLPMNTGWVELVRDEQQIPGNIALADDSLVPFLAGETVRWSVKK
notes: Dihydroorotase of Salmonella enterica serovar Typhimurium LT2; also called StDHOase
[3]
  stoichiometry N: 2

B2: Saccharomyces cerevisiae dihydroorotase (enzyme)
chain: MVQEIDLGLTCDMHVHVREGAMCELVTPKIRDGGVSIAYIMPNLQPPITTLDRVIEYKKTLQKLAPKTTFLMSFYLSKDLTPDLIHEAAQQHAIRGVKCYPAGVTTNSAAGVDPNDFSAFYPIFKAMQEENLVLNLHGEKPSVHDGDKEPIHVLNAEEAFLPALKKLHNDFPNLKIILEHCTSESAIKTIEDINKNVKKATDVKVAATLTAHHLFLTIDDWAGNPVNFCKPVAKLPNDKKALVKAAVSGKPYFFFGSDSAPHPVQNKANYEGVCAGVYSQSFAIPYIAQVFEEQNALENLKGFVSDFGISFYEVKDSEVASSDKAILFKKEQVIPQVISDGKDISIIPFKAGDKLSWSVRWEPR
modifications: carbamylated lysine (Kcx) at 98
notes: Dihydroorotase of Saccharomyces cerevisiae, the monofunctional DHOase encoded by an independent gene; monomer about 40 kDa; Two Zn ions and malate in the active site of each subunit in the crystals; also called ScDHOase; DHOase
[4]
  stoichiometry N: 2
[5]
  stoichiometry N: ~2 and ~4.1
[6]
  stoichiometry N: 4
